According to PMC9499535, “Distinct architectural requirements for the parS centromeric sequence of the pSM19035 plasmid partition machinery”:

How the values were obtained:
[1] = molecular target: T1, ParB_pSM19035 (ParBpSM, Omega) (plasmid pSM19035, UniProt Q57468 1-71); assay: EMSA; 2 mM Mg2+; EMSA: 50 mM Tris-HCl pH 7.4, 100 mM KCl, 2 mM MgCl2, 1 mM DTT, room temperature 15 min, 0.05 nM 32P-DNA, 4-12% PAGE. TIRF binding to the salmon sperm DNA carpet (undefined sequence pool) and ATPase assays not listed; details: protein: recombinant; tags: none stated; chain copies: 2; label: 32P; blunt
T1 sequence: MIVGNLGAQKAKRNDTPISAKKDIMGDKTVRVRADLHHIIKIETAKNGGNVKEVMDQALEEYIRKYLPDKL

[2] = molecular target: ParApSM-His6 (non-fluorescent, wild-type) (Streptococcus pyogenes (plasmid pSM19035)) (UniProt Q57280)
[3] = molecular target: ParApSM-His6 (non-fluorescent, wild-type) (Streptococcus pyogenes (plasmid pSM19035)) (UniProt Q57280); remark: listed apart in the source
[4] = molecular target: ParApSM-His6 (non-fluorescent, wild-type) (Streptococcus pyogenes (plasmid pSM19035)) (UniProt Q57280); remark: listed apart in the source
[5] = molecular target: ParApSM-His6 (non-fluorescent, wild-type) (Streptococcus pyogenes (plasmid pSM19035)) (UniProt Q57280); remark: listed apart in the source
[6] = molecular target: ParApSM^D60E-GFP-His6 (Streptococcus pyogenes (plasmid pSM19035)) (UniProt Q57280); assay: TIRF microscopy on an nsDNA-carpeted flow cell; ParApSM^D60E-GFP (1 μM) bound first to the nsDNA-carpet, then washed with 250 nM ParBpSM-Alexa647 plus 4R-parSpSM duplex (125 nM heptad); room temperature; 1 mM ATP
[7] = molecular target: ParApSM^D60E-GFP-His6 (Streptococcus pyogenes (plasmid pSM19035)) (UniProt Q57280); assay: TIRF microscopy on an nsDNA-carpeted flow cell; ParApSM^D60E-GFP (1 μM) bound first to the nsDNA-carpet, then washed with 250 nM ParBpSM-Alexa647 plus 36 nM 7R-parSpSM duplex; room temperature; 1 mM ATP; apparent constants
[8] = molecular target: ParApSM-GFP-His6 (Streptococcus pyogenes (plasmid pSM19035)) (UniProt Q57280); assay: TIRF microscopy on an nsDNA-carpeted flow cell; ParApSM-GFP (1 μM) and ParBpSM-Alexa647 (1 μM) preincubated with 1 mM ATP and 4R-parSpSM (0.5 μM consensus repeats), infused over the nsDNA-carpet for 15 min, then washed with ATP buffer without proteins; room temperature; apparent constants
[9] = molecular target: ParApSM-GFP-His6 (Streptococcus pyogenes (plasmid pSM19035)) (UniProt Q57280); assay: TIRF microscopy on an nsDNA-carpeted flow cell; ParApSM-GFP bound first to the nsDNA-carpet to ~10% of saturation, then washed with 1 μM ParBpSM-Alexa647 plus 125 nM 4R-parSpSM duplex; room temperature; 1 mM ATP; apparent constants
[10] = molecular target: ParApSM-GFP-His6 (Streptococcus pyogenes (plasmid pSM19035)) (UniProt Q57280); assay: TIRF microscopy on an nsDNA-carpeted flow cell; ParApSM-GFP bound first to the nsDNA-carpet to ~10% of saturation, then washed with 1 μM ParBpSM-Alexa647 plus 166 nM 3R-parSpSM duplex; room temperature; 1 mM ATP; apparent constants
[11] = molecular target: ParApSM-GFP-His6 (Streptococcus pyogenes (plasmid pSM19035)) (UniProt Q57280); assay: TIRF microscopy on an nsDNA-carpeted flow cell; ParApSM-GFP (1 μM, 1 mM ATP) bound first to the nsDNA-carpet to ~10% of saturation, then washed with 1 μM ParBpSM-Alexa647 without parSpSM; room temperature; 50 mM Tris-HCl pH 7.4, 100 mM KCl, 2 mM MgCl2, 10% glycerol, 1 mM ATP; apparent constants
[12] = molecular target: ParApSM-GFP-His6 (Streptococcus pyogenes (plasmid pSM19035)) (UniProt Q57280); assay: TIRF microscopy on an nsDNA-carpeted flow cell; ParApSM-GFP bound first to the nsDNA-carpet to ~10% of saturation, then washed with 1 μM ParBpSM-Alexa647 plus 7R-parSpSM duplex; room temperature; 1 mM ATP; apparent constants
[13] = molecular target: ParApSM-GFP-His6 (Streptococcus pyogenes (plasmid pSM19035)) (UniProt Q57280); assay: TIRF microscopy on an nsDNA-carpeted flow cell; ParApSM-GFP (1 μM) and ParBpSM-Alexa647 (1 μM) preincubated with 1 mM ATP and 7R-parSpSM (0.5 μM consensus repeats), infused over the nsDNA-carpet for 15 min, then washed with ATP buffer without proteins; room temperature; apparent constants
[14] = molecular target: ParApSM-GFP-His6 (Streptococcus pyogenes (plasmid pSM19035)) (UniProt Q57280); assay: TIRF microscopy on an nsDNA-carpeted flow cell; ParApSM-GFP (1 μM) and ParBpSM-Alexa647 (1 μM) preincubated with 1 mM ATP without parSpSM, infused over the nsDNA-carpet for 15 min, then washed with ATP buffer without proteins; room temperature; apparent constants
[15] = molecular target: ParApSM-GFP-His6 (Streptococcus pyogenes (plasmid pSM19035)) (UniProt Q57280); assay: TIRF microscopy on an nsDNA-carpeted flow cell; ParApSM-GFP (1 μM) and ParBpSM-Alexa647 (1 μM) preincubated with 1 mM ATP and 3R-parSpSM (0.5 μM consensus repeats), infused over the nsDNA-carpet for 15 min, then washed with ATP buffer without proteins; room temperature; apparent constants
[16] = molecular target: ParApSM^D60E-GFP-His6 (Streptococcus pyogenes (plasmid pSM19035)) (UniProt Q57280); assay: TIRF microscopy on an nsDNA-carpeted flow cell; ParApSM^D60E-GFP (1 μM) bound first to the nsDNA-carpet, then washed with 250 nM ParBpSM-Alexa647 plus 3R-parSpSM duplex (125 nM heptad); room temperature; 1 mM ATP

B1: scrambled 55 bp (nsDNA) (dsDNA)
DNA 1: GGGATCAAACACTTGATAGACAAGTCTTTGACCTAATTGTGAAAATTATGAAGGG
DNA 2: CCCTTCATAATTTTCACAATTAGGTCAAAGACTTGTCTATCAAGTGTTTGATCCC
Work on B1 yielded a Kd [1] of ~1000 nM.

B2: ParBpSM wild-type (natural protein)
chain: T1 sequence
B2 gave a steady-state ParApSM ATPase turnover with ParBpSM, 3R-1nc-3R-parSpSM duplex and nsDNA, 37°C [2] of 8.3 h^–1, a ParBpSM concentration for half-activation of the ParApSM ATPase at high 7R-parSpSM concentration, with nsDNA [3] of 650 nM and a ParBpSM concentration at which the ParApSM ATPase stimulation saturates, with parSpSM DNA of 1-3 repeats and nsDNA [4] of 2 µM. For the same binder, the steady-state ParApSM ATPase turnover with 8 μM ParBpSM, scrambled-sequence duplex and nsDNA (pBR322), 37°C [5] was 2.4 h^–1 and the steady-state ParApSM ATPase turnover with ParBpSM, 7R-parSpSM duplex and nsDNA (pBR322), 37°C [5] was 20.5 h^–1.

B3: ParBpSM-Alexa647 (ParBpSM-GCE, 1% labeled) (natural protein)
chain: T1 sequence
modifications: Alexa647 maleimide on the added cysteine (73C); 1% of the protein labelled
B3 was tested, and the ParBpSM/ParApSM ratio on the nsDNA-carpet at the initial ParBpSM overshoot peak (ParBpSM/ParApSM) [6] was 1.3, the ParBpSM/ParApSM ratio on the nsDNA-carpet at the initial ParBpSM overshoot peak (ParBpSM/ParApSM) [7] was 1.75 and the apparent koff of ParBpSM from the ParApSM^D60E-bound nsDNA-carpet after its peak (ParBpSM and 7R-parSpSM in the wash) [7] was 0.036 min^–1. For the same binder, the ParBpSM/ParApSM ratio on the nsDNA-carpet at the end of 15 min of infusion (ParBpSM/ParApSM) [8] was 0.75, the ParBpSM/ParApSM ratio on the nsDNA-carpet within 1 min of washing (ParBpSM/ParApSM) [8] was 0.5 and the koff-fast-B (66%) [8] was 1.9 min^–1. The koff-slow-B [8] was 0.23 min^–1, the ParBpSM/ParApSM molar ratio on the nsDNA-carpet at the start of the dissociation burst (ParBpSM/ParApSM) [9] was 1.7 and the apparent koff of ParBpSM from the ParApSM-bound nsDNA-carpet after its peak (ParBpSM and 4R-parSpSM in the wash) [9] was 3.9 min^–1. For the same binder, the ParBpSM/ParApSM ratio on the nsDNA-carpet (ParBpSM/ParApSM) [10] was 1.3, the apparent koff-fast (~24%) of ParBpSM from the ParApSM-bound nsDNA-carpet (ParBpSM and 3R-parSpSM in the wash) [10] was 1.4 min^–1 and the apparent koff-slow of ParBpSM from the ParApSM-bound nsDNA-carpet (ParBpSM and 3R-parSpSM in the wash) [10] was 0.05 min^–1. For the same binder, the ParBpSM/ParApSM ratio on the nsDNA-carpet after several min of washing (ParBpSM/ParApSM) [11] was 1, the peak density on the ParApSM-bound nsDNA-carpet [11] was 3000 dimers/μm^2 and the plateau density on the ParApSM-bound nsDNA-carpet [11] was 2000 dimers/μm^2. It also gave a ParBpSM density on the nsDNA-carpet relative to carpet-bound ParApSM [12] of 2 fold, a ParBpSM/ParApSM molar ratio on the nsDNA-carpet at the start of the dissociation burst (ParBpSM/ParApSM) [12] of 2.8 and an apparent koff of ParBpSM from the ParApSM-bound nsDNA-carpet after its peak (ParBpSM and 7R-parSpSM in the wash) [12] of 2.4 min^–1. For the same binder, the ParBpSM/ParApSM ratio accumulated on the nsDNA-carpet (ParBpSM/ParApSM) [13] was 1.2, the koff-fast-B (~70%) [13] was 1.1 min^–1 and the koff-slow-B [13] was 0.13 min^–1. It also gave a ParBpSM density on the nsDNA-carpet relative to ParApSM after 15 min of infusion (ParBpSM/ParApSM) [14] of 0.67, a koff of the fast-dissociating majority (~75%) of ParBpSM [14] of 7 min^–1 and a ParBpSM density on the nsDNA-carpet relative to ParApSM after 15 min of infusion (ParBpSM/ParApSM) [15] of 0.67. The koff of the fast-dissociating majority (~75%) of ParBpSM [15] was 4 min^–1 and the ParBpSM/ParApSM ratio on the nsDNA-carpet at the initial ParBpSM overshoot peak (ParBpSM/ParApSM) [16] was 0.6.
